Test system: Primary human keratinocytes
Test: Keratinocyte migration, wound scratch assay
Format: cell-based
Settings: 20 μmol/L LiCl or 25 ng/ml of EGF, 24 and 48 hours
Description: Primary human keratinocytes were grown to 80% confluency. Twenty-four hours before the experiment cells were transferred to basal KBM medium (Life Technologies, Inc., Grand Island, N.Y.). Before the scratch, cells were treated with 8 μg/ml mitomycin C (ICN, Irvine, Calif.) for 1 hour and washed with basal media. Scratches were performed as previously described (Lee, et al., J Mol. Biol., 345:1083-1097 (2005)). Cells were incubated with 20 μmol/L LiCl or 25 ng/ml of EGF for 24 and 48 hours, rephotographed, and cell migration was quantified as previously described (Lee, et al., J. Mol. Biol., 345:1083-1097 (2005); Zavadil. et al., EMBO J., 23:1155-1165 (2004)). Thirty measurements were taken for each experimental condition and distance coverage by cells moving into the scratch wound area was quantified. Three images were analyzed per condition, per time point, and averages and standard deviations were calculated.

B1: EGF: epidermal growth factor, promotes keratinocyte migration (protein, UniProt P01133 23-1207, looked up)
Pro-epidermal growth factor: PQHWSCPEGTLAGNGNSTCVGPAPFLIFSHGNSIFRIDTEGTNYEQLVVDAGVSVIMDFHYNEKRIYWVDLERQLLQRVFLNGSRQERVCNIEKNVSGMAINWINEEVIWSNQQEGIITVTDMKGNNSHILLSALKYPANVAVDPVERFIFWSSEVAGSLYRADLDGVGVKALLETSEKITAVSLDVLDKRLFWIQYNREGSNSLICSCDYDGGSVHISKHPTQHNLFAMSLFGDRIFYSTWKMKTIWIANKHTGKDMVRINLHSSFVPLGELKVVHPLAQPKAEDDTWEPEQKLCKLRKGNCSSTVCGQDLQSHLCMCAEGYALSRDRKYCEDVNECAFWNHGCTLGCKNTPGSYYCTCPVGFVLLPDGKRCHQLVSCPRNVSECSHDCVLTSEGPLCFCPEGSVLERDGKTCSGCSSPDNGGCSQLCVPLSPVSWECDCFPGYDLQLDEKSCAASGPQPFLLFANSQDIRHMHFDGTDYGTLLSQQMGMVYALDHDPVENKIYFAHTALKWIERANMDGSQRERLIEEGVDVPEGLAVDWIGRRFYWTDRGKSLIGRSDLNGKRSKIITKENISQPRGIAVHPMAKRLFWTDTGINPRIESSSLQGLGRLVIASSDLIWPSGITIDFLTDKLYWCDAKQSVIEMANLDGSKRRRLTQNDVGHPFAVAVFEDYVWFSDWAMPSVMRVNKRTGKDRVRLQGSMLKPSSLVVVHPLAKPGADPCLYQNGGCEHICKKRLGTAWCSCREGFMKASDGKTCLALDGHQLLAGGEVDLKNQVTPLDILSKTRVSEDNITESQHMLVAEIMVSDQDDCAPVGCSMYARCISEGEDATCQCLKGFAGDGKLCSDIDECEMGVPVCPPASSKCINTEGGYVCRCSEGYQGDGIHCLDIDECQLGEHSCGENASCTNTEGGYTCMCAGRLSEPGLICPDSTPPPHLREDDHHYSVRNSDSECPLSHDGYCLHDGVCMYIEALDKYACNCVVGYIGERCQYRDLKWWELRHAGHGQQQKVIVVAVCVVVLVMLLLLSLWGAHYYRTQKLLSKNPKNPYEESSRDVRSRRPADTEDGMSSCPQPWFVVIKEHQDLKNGGQPVAGEDGQAADGSMQPTSWRQEPQLCGMGTEQGCWIPVSSDKGSCPQVMERSFHMPSYGTQTLEGGVEKPHSLLSANPLWQQRALDPPHQMELTQ
modifications: Pro-epidermal growth factor
notes: epidermal growth factor, promotes keratinocyte migration
- keratinocyte migration: promoted

Source: patent US8889615B2, “Methods for promoting epithelialization and healing of chronic wounds” (New York University, priority 2009, dated 2014)
